In PMC5041490:

Key:
Assay in all cases: pull-down
His-G5(1–739) Y474A = His-G5(1–739) Y474A (UniProt Q8TEQ6)
His-G5(1–739) Y15A = His-G5(1–739) Y15A (UniProt Q8TEQ6)
His-G5(1–739) wild type = His-G5(1–739) wild type (UniProt Q8TEQ6)
His-G5(1–739) W14A = His-G5(1–739) W14A (UniProt Q8TEQ6)
Sequence of His-G5(1–739) W14A (Q8TEQ6 1-739 W14A): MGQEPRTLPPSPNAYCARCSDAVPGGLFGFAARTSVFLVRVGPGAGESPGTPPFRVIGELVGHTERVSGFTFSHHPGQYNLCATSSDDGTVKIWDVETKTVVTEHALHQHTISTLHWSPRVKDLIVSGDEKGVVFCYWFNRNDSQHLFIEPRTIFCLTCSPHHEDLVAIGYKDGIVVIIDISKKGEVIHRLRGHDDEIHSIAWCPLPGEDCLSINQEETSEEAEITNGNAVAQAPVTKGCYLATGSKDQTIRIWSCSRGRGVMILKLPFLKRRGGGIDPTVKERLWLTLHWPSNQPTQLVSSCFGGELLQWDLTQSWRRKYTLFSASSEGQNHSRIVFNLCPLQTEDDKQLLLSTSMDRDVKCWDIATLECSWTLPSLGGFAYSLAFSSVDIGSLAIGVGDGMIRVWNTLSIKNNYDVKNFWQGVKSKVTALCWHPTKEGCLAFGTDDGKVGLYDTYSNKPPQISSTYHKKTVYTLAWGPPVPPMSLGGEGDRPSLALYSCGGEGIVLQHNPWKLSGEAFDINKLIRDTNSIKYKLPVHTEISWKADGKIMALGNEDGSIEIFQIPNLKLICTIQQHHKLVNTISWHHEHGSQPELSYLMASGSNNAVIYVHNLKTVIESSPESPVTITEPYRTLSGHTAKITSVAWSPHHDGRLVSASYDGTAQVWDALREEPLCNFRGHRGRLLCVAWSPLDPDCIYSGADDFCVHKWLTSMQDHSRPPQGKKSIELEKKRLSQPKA

Sequence of His-G5(1–739) wild type (Q8TEQ6 1-739): as the sequence (Q8TEQ6 1-739 W14A) above, with A14W counted along it
Sequence of His-G5(1–739) Y15A (Q8TEQ6 1-739 Y15A): as the sequence (Q8TEQ6 1-739 W14A) above, with A14W, Y15A counted along it
Sequence of His-G5(1–739) Y474A (Q8TEQ6 1-739 Y474A): as the sequence (Q8TEQ6 1-739 W14A) above, with A14W, Y474A counted along it

80S ribosomes (from UniProt P05388 1-317) (complex)
fold P0 signal over the beads-ribosome background (His-G5(1–739) Y474A): 3 fold
fold P0 signal over the beads-ribosome background (His-G5(1–739) Y15A): 14.4 fold
fold P0 signal over the control (beads with 80S, no His protein) (His-G5(1–739) wild type): 38.8 fold
fold P0 signal over the beads-ribosome background (His-G5(1–739) W14A): 13.8 fold
